The text below walks through data of patent US20230331827A1, “POTASSIUM CHANNEL INHIBITORS” (priority 2017, published 2023).

Like-named read-outs stand apart in the source and are kept apart here.

One experiment addresses T1, human Kv1.3 (huKv1.3) (Homo sapiens, UniProt P22001).
T1 construct: host or cells: CHO
Kind of experiment: QPatch automated patch-clamp, CHO cells stably expressing human Kv1.3 (Examples 19-21). Format: cell-based. In short, it runs like this:
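Whole-cell currents were recorded in extracellular solution of 145 mM NaCl, 4 mM KCl, 2 mM CaCl2, 1 mM MgCl2, 10 mM HEPES, 10 mM glucose (pH 7.4), with a KF/KCl/EGTA pipette solution (pH 7.2). From -80 mV, +30 mV pulses of 300 ms were applied every 10 s, with four ascending KnotBody concentrations added extracellularly. Peak outward current was averaged (n = 3-6) and IC50 fitted from concentration-response curves.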

The target of a further experiment is T2, human Kv1.1 (huKv1.1) (Homo sapiens, UniProt Q09470).
T2 construct: expressed in transfected cells; host or cells: Freestyle CHO-S
T2 sequence (Q09470 whole entry): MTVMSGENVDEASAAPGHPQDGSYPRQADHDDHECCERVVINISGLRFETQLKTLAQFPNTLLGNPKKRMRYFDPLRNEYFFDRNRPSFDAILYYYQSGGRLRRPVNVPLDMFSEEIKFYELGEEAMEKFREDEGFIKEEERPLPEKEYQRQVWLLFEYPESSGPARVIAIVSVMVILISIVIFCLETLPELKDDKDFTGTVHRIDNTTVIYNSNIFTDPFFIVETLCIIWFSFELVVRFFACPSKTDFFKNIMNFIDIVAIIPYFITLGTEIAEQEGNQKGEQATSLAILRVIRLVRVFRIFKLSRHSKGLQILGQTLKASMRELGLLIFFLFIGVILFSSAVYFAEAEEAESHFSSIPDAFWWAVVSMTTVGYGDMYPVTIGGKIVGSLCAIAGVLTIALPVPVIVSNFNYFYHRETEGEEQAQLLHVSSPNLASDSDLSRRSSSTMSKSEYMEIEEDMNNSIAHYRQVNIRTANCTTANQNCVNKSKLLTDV
Kind of experiment: QPatch automated patch-clamp, CHO-S cells expressing huKv1.1 (Examples 20-21). The note with it: four-point curves of FIG. 33, Table E20. Format: cell-based. The method, then:
1. The effect of these KnotBodies on cells expressing human Kv1.1 (huKv1.1) and Kv1.3 (huKv1.3) channels was assessed using QPatch automated patch-clamp platform (Sophion).
To generate huKv1.1 expressing cells, Freestyle CHO-S cells (Cat. no. R80007, Life Technologies, California, USA) were transfected with pINT50-Tr plasmid encoding huKv1.1 gene using the MaxCyte STX (MaxCyte) transfection system. In pINT50-Tr plasmid, huKv1.1 gene is under the control of a CMV promoter. 64 µg of the plasmid DNA were added to 400 µl of Freestyle CHO-S cells (at a density of 1 × 10^8 cells/ml) in Electroporation Buffer (GE Healthcare Life Sciences, Cat. no. EPB1) in an OC-400 processing assembly (MaxCyte). Following electroporation, the cells were transferred to a well of a 24-well plate containing 200 U/ml DNAse I (Sigma, D4263) and incubated for 20 minutes at 37° C. and 5% CO2. The cells were then transferred into a 100 ml shaker flask containing 20 ml of CD Opticho Media (Thermo Fisher Scientific, Cat.No 12681-011,) supplemented with 8 mM L-Glut (Thermo Fisher Scientific, cat. no. 25030-024). The cells were incubated for 24 hours at 37° C. and 5% CO2 (and 75% humidity and shaking at 800 rpm) prior to testing using automated patch clamp electrophysiology.
For the testing of Kv1.1 and Kv1.3, CHO-S expressing huKv1.1 (described above) or CHO cells stably expressing huKv1.3 (Charles River Lab) were analysed using the QPatch electrophysiology assay in the presence or absence of the KnotBody fusions. Internal and external physiological solutions were freshly prepared prior to the assay. The extracellular solution contained 145 mM NaCl, 4 mM KC1, 2 mM CaC12, 1 mM MgC12, 10 mM HEPES and 10 mM glucose; the pH was adjusted to 7.4 with NaOH; the osmolarity was ~ 305 mOsm/L. The intracellular solution contained: KF (120 mM), KC1 (20 mM), HEPES (10 mM) EGTA (10 mM); the pH was adjusted to 7.2 with KOH; osmolarity was ~ 300 mOsm/L.
A series of depolarising voltage (channel activating) pulses were used to monitor the channel currents upon adding control (extracellular solution) to define a control baseline of current activity. To these measured control currents four, ascending concentrations of KnotBodies (including previously described KB_A12_ShK and KB_A12_KTX described in Example 8) or parental antibody isotypes (control molecules) were applied to the external bathing solution. KnotBodies KB_A12 and KB_A07 (EETI-II fusions) were used as isotype controls for the testing. From a holding voltage of -80 mV a depolarising, activating voltage pulses of […] were applied for 300 ms, every 10 seconds. The elicited, maximum outward current values measured during the activating step for each solution exchange period, averaged (n = 3 - 6 for each concentration applied) and plotted as concentration-response curves (see FIG. 33). From these concentration-response curves IC50 values were calculated (see Table E20).
For the testing of Kv1.1 and Kv1.3, CHO-S expressing huKv1.1 (see Example 20 and below) or CHO cells stably expressing huKv1.3 (Charles River Lab) were analysed using the QPatch electrophysiology assay in the presence or absence of the KnotBody fusions - see details in Examples 19 and 20.
In addition to the CHO-S transiently expressing huKv1.1 (described in Example 20), CHO-S cells with poly-clonal stable expression of huKv1.1 cells were also made and used in the QPatch electrophysiology assay. To generate the polyclonal stable huKv1.1 cells from the transiently expressing cells described in Example 20, after a 24 hour incubation period the selection antibiotic Puromycin (catalogue no. A1 1138-03, Life Technologies, California, USA) was added to culture media. Then, for the first 14 days puromycin was at 10 µg ml-1 media; at days 15-28 puromycin was at 20 µg ml-1 media. Cell cultures were seeded at 2.5 x 10^5 cells ml^-1 into fresh culture media and puromycin twice per week through this selection growth period. […]

T1 sequence (P22001 whole entry): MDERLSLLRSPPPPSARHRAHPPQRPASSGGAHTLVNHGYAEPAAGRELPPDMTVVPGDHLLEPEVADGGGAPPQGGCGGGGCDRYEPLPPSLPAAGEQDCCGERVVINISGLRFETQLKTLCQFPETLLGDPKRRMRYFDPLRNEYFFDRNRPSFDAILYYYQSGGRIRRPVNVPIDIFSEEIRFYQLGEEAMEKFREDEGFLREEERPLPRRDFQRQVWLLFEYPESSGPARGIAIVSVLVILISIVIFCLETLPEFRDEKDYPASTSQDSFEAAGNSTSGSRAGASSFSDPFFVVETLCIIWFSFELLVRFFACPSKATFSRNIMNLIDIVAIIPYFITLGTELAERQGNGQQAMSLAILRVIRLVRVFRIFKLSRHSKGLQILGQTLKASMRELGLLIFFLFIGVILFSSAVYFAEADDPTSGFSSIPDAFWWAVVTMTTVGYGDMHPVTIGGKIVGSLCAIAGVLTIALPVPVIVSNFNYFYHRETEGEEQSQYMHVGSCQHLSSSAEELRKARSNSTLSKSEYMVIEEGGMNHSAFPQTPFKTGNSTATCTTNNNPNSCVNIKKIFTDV

B1: KB_A12_ShK: ShK toxin in VL CDR2 of KB_A12, IgG1 (antibody, V domains shown)
VH: EVQLVESGGGLVRPGGSLRLSCAASGFTFSSYAMSWVRQAPGKGLEWVSAISGSGGSTYYADSVKGRFTISRDNTKNSLYLQMTSLRADDTAFYYCVKDFGPGYGTGWFDYWGPGTLVTVSS
VL: QSVLTQPPSVSEAPRQRVTITCSGSSSNIGNNAVNWYQQLPGKAPKLLIYAAGRRSCIDTIPKSRCTAFQCKHSMKYRLSFCRKTCGTCANSGVSDRFSAAKSGTSASLAINGLRSEDEADYYCAAWDDSLNGYVFGTGTKLTVLG
Turning to B1, the Fold difference with human Kv1.3 (huKv1.3) (Kv1.1 IC50 over Kv1.3 IC50, Table E20) came out at 3. For the same molecule, the IC50 with human Kv1.3 (huKv1.3) (four-point curves of FIG. 33, Table E20, read-out: Kv1.3 IC50) turned out to be 13 nM; with human Kv1.3 (huKv1.3) (huKv1.3, four-point curves of FIG. 32, Table E19, read-out: IC50), 8.6 nM; in the experiment with human Kv1.1 (huKv1.1), 40 nM.
